According to patent US11753479B2, “Nucleic acids encoding anti-OX40L antibodies” (Kymab Limited, priority 2014, dated 2023):

T1: hOX40L expressed on CHO-S cells (Homo sapiens, UniProt P23510)
T1 construct: expressed in transfected cells
T1 sequence (P23510 1-183): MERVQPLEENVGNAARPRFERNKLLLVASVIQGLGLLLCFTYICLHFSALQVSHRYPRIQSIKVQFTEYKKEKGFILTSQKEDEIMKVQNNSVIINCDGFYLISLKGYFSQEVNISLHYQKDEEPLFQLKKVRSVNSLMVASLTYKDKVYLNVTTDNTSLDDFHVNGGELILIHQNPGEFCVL

B1: 10A07 (hybridoma): murine/human chimeric anti-OX40L antibody 10A07 purified from hybridoma supernatant (antibody, V domains shown)
VH: EVQLVESGGVLVQPGGSLRLSCAASGFTFSSYIMTWVRQAPGKGLEWVSGISGSGGGTYYADSMKGRFTISRDNSKNTLYLQMNSLRVEDTAVYYCAKDRLGPITLVRGGYYYGMDVWGQGTTVTVSS
VL: DIQMTQSPSSLSASVGDRVTITCRASQSISDYLNWYQQKPGKAPKFLIYAASSLQSGVPSRFSGSGSGTDFTLTVSSLQPEDFATYYCQQSYSTPRTFGQGTRVEIK
B2: 2D10 (hybridoma): murine/human chimeric anti-OX40L antibody 2D10 purified from hybridoma supernatant (antibody, V domains shown)
VH: EVQLVESGGGLVQPGGSLRLSCAASGFTFSNYAMNWVRQAPGKGLEWVSTISGSGGATRYADSVKGRFTISRDNSRNTVYLQMNSLRVEDTAVFYCTKDRLIMATVRGPYYYGMDVWGQGTTVTVSS
VL: DIQMTQSPSSLSASVGDRVTITCRASQSISSYLNWYQQKPGKAPNLLIYAASSLQSGVPSRFSGSGSETDFTLTISSLQPEDFATYYCQQSHSVSFTFGPGTKVDIK
B3: 9H04 (hybridoma): murine/human chimeric anti-OX40L antibody purified from hybridoma supernatant (protein, listed as Homo Sapiens)
chain: QVQLVESGGGLVKPGGSLRLSCAASRFTLSDYYMTWIRQAPGKGLEWVSYISSSGNTIYYADSVKGRFTISRDNAKNSLYLQMNSLRAEDTAVYYCARDLSGSYWDYYYGMDVWGQGTTVTVSS
modifications: VH only; VL and constant regions missing
notes: murine/human chimeric anti-OX40L antibody purified from hybridoma supernatant

target: T1, hOX40L expressed on CHO-S cells; test: Binding to CHO-S expressed hOX40L (FACS); details: binding to CHO-S expressed hOX40L by FACS
Method: To determine whether wells selected using the primary screen selection criteria had the required characteristics set by the inventors, a number of assays were performed. Hybridoma clones selected as hits from primary screening were cultured for 3 days and the supernatants collected from hybridoma cells were tested to assess whether the secreted antibodies that bind to CHO-S expressed hOX40L, in some case bind to untransfected CHO-S cells and whether they neutralise recombinant OX40R Fc binding to CHO-S hOX40L and ability to neutralise OX40R binding to recombinant biotinylated hOX40L.
CHO-S cells expressing hOX40L or untransfected CHO-S cells, diluted in FACS buffer (PBS+1% w/v BSA+0.1% w/v NaN3) were distributed to a 96 well V-bottom plate (Greiner) at a density of 1×10^5 cells per well. Cells were washed with 150 μL of PBS and centrifuged at 300×g for 3 min. Supernatant was aspirated and 150 μL of PBS added. This wash step was repeated.
25 μL of hybridoma supernatant or purified antibody from hybridoma supernatant diluted in FACS buffer was added to the washed cells and incubated for 10-15 minutes. Reference Antibody or mouse IgG1 control antibody (Sigma) were diluted in FACS buffer to 20 μg/mL and 25 μL added to cells. 25 μL of human OX40R Fc (in-house) diluted to 1000 ng/mL in FACS buffer were then added to wells. Cells were incubated at 4° C. for 30 minutes.
Cells were washed twice with 150 μL of PBS centrifuging after each wash step and aspirating supernatant (centrifuged at 300×g for 3 minutes). […]
To fix cells 100 μL 2% v/v paraformaldehyde was added and cells incubated for 30 minutes at 4° C., cells were pelleted by centrifugation 300×g and the plates and resuspended in 50 μL of FACS buffer. PE and APC signal intensity (geomean) was measured by flow cytometry using a BD FACS Array instrument.
% of control binding was calculated using geomean fluorescence as described in equation 1 where total binding was defined as reference antibody at 10 μg/mL and non-specific binding as mouse IgG1 antibody at 10 μg/mL. % receptor binding was calculated using Equation 3. […]

Molecule	FACS Binding
B1	YES
B2	YES
B3	YES
